Data: the RNAGym collection of RNA variant scans (doi:10.1093/nar/gkz1192)

B1: CPEB3 Ribozyme (parent)
chain: UAACAGGGGGCCACAGCAGAAGCGUUCACGUCGCAGCCCCUGUCAGAUUCUGGUGAAUCUGCGAAUUCUGCUGUAUAUCUC

Variants of: B1
Test: self-cleavage, relative activity (ratio to wild type); higher = more cleavage; in vitro, sequencing
In short: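 Libraries of CPEB3 self-cleaving ribozyme mutants came from rounds of error-prone PCR and carried barcodes, which DNA sequencing matched to variants. In vitro transcription used T7 RNA polymerase at 37°C for 5 hours, with a further 15 min in DNase I before EDTA stopped the reaction; the ribozymes cleaved during both steps. The RNA was reverse transcribed with template switching and sequenced on Illumina. Relative activity is the cleaved/total read fraction of a variant divided by that of the unmutated ribozyme, averaged over three batches with at least 5 reads.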

In order of falling self-cleavage:
1. A18G U74G  1.21
2. A18G U69C  1.18
3. A18G U74C  1.1
4. A18G U74A  0.95
5. A18G U80A  0.9
6. A18G U80C  0.86
7. A18G U78A  0.82
8. A18G U78C  0.82
9. A18G U54A  0.8
10. A18G U51G  0.77
11. A18U C79A  0.75
12. A18G U51A  0.74
13. A18G U76A  0.73
14. A18G U43A  0.72
15. A18U A35G  0.7
16. A18U C81A  0.69
17. A18G U41C  0.68
18. A18G U72C  0.68
19. A18U U43A  0.64
20. A18U G73A  0.61
21. A18G U76C  0.58
22. A18G U54C  0.57
23. A18U G63U  0.57
24. A18U G53A  0.56
25. A18U U54A  0.54
26. A18G U78G  0.53
27. A18U A77G  0.51
28. A18U C81U  0.51
29. A18U A75U  0.5
30. A18G U69G  0.49
31. A18U G73C  0.49
32. A18G U51C  0.48
33. A18G U69A  0.48
34. A18U A77U  0.48
35. A18U G63A  0.48
36. A18U C40U  0.45
37. A18U G53U  0.45
38. A18G U41G  0.42
39. A18U C50U  0.42
40. A18U U51C  0.42
41. A18G U31A  0.41
42. A18U G55U  0.41
43. A18U U51A  0.41
44. A18U  0.4
45. A18U C50A  0.4
46. A18U G52A  0.39
47. A18U G52U  0.39
48. A18G U60A  0.38
49. A18U A75G  0.38
50. A18U U41C  0.38
51. A18U U49A  0.38
52. A18U A47G  0.37
53. A18U A57G  0.37
54. A18U G63C  0.37
55. A18G U43G  0.36
56. A18G U54G  0.36
57. A18U G24A  0.36
58. A18U G42A  0.36
59. A18G U43C  0.35
60. A18G U72A  0.35
61. A18U A20G  0.34
62. A18U A35C  0.34
63. A18U U54G  0.34
64. A18G U26C  0.33
65. A18U A57U  0.33
66. A18U C62U  0.33
67. A18G U49A  0.32
68. A18U A45G  0.32
69. A18U U54C  0.32
70. A18U U58C  0.32
71. A18G U48C  0.31
72. A18G U66A  0.31
73. A18G U67A  0.31
74. A18U A56U  0.31
75. A18U A64G  0.31
76. A18U C38U  0.31
77. A18U U26A  0.31
78. A18G U31C  0.3
79. A18U A47U  0.3
80. A18U A56G  0.3
81. A18U C39U  0.3
82. A18U G33A  0.3
83. A18U G61A  0.3
84. A18U U31A  0.3
85. A18U U60A  0.3
86. A18G U49C  0.29
87. A18G U66C  0.29
88. A18G U72G  0.29
89. A18U A28U  0.29
90. A18U G55A  0.29
91. A18U U66A  0.29
92. A18U U66C  0.29
93. A18G U58C  0.28
94. A18G U58G  0.28
95. A18G U60C  0.28
96. A18G U67G  0.28
97. A18U A21U  0.28
98. A18U A64U  0.28
99. A18U A65G  0.28
100. A18U C62A  0.28
101. A18U G61U  0.28
102. A18U U48C  0.28
103. A18U C62G  0.27
104. A18U C81G  0.27
105. A18G U41A  0.26
106. A18G U67C  0.26
107. A18U A28G  0.26
108. A18U C79U  0.26
109. A18U U25C  0.26
110. A18U U26C  0.26
111. A18U U31C  0.26
112. A18U U43C  0.26
113. A18U A20U  0.25
114. A18U A21G  0.25
115. A18U A45U  0.25
116. A18U C34U  0.25
117. A18U C39A  0.24
118. A18U C44G  0.24
119. A18U G22U  0.24
120. A18U C23U  0.23
121. A18U C34A  0.23
122. A18U C59U  0.23
123. A18U G19C  0.23
124. A18U A35U  0.22
125. A18U C23G  0.22
126. A18U U41A  0.22
127. A18U U49C  0.22
128. A18U U60C  0.22
129. A18G U58A  0.21
130. A18U A56C  0.21
131. A18U G19U  0.21
132. A18U G70U  0.21
133. A18U U67A  0.21
134. A18U A21C  0.2
135. A18U A65U  0.2
136. A18U C44U  0.2
137. A18U C68A  0.2
138. A18U G46U  0.2
139. A18U C29A  0.19
140. A18U G36U  0.19
141. A18U U25A  0.19
142. A18U U48A  0.19
143. A18U U58A  0.19
144. A18U C40G  0.18
145. A18U G42C  0.18
146. A18U C29U  0.17
147. A18U C32A  0.17
148. A18U C32G  0.17
149. A18U C59A  0.17
150. A18U G30U  0.17
151. A18U U31G  0.17
152. A18G U48A  0.16
153. A18U A45C  0.16
154. A18U A28C  0.15
155. A18U C44A  0.15
156. A18U C59G  0.15
157. A18U G19A  0.15
158. A18U G30A  0.15
159. A18G U60G  0.14
160. A18U G61C  0.14
161. A18U U43G  0.14
162. A18U C40A  0.13
163. A18U C23A  0.1
164. A18U C32U  0.08
165. A18U U25G  0.08
166. A18U U26G  0.07
167. A18U U58G  0.03
